Earlier results in publication PMC3433420.

Experiments:
Conditions in all cases: cited from earlier work
YES1 (Homo sapiens) = YES1 (Homo sapiens) (UniProt P07947)
CRKL (Homo sapiens) = CRKL (Homo sapiens) (UniProt P46109)
SOCS3 (Homo sapiens) = SOCS3 (Homo sapiens) (UniProt O14543)
SHF (Homo sapiens) = SHF (Homo sapiens) (UniProt Q7M4L6)
PIK3R3-NC (Homo sapiens) = PIK3R3-NC (Homo sapiens) (UniProt Q92569)
PIK3R3-N (Homo sapiens) = PIK3R3-N (Homo sapiens) (UniProt Q92569)
SH3BP2 (Homo sapiens) = SH3BP2 (Homo sapiens) (UniProt P78314)
Chain of SH3BP2 (Homo sapiens) (P78314 452-560): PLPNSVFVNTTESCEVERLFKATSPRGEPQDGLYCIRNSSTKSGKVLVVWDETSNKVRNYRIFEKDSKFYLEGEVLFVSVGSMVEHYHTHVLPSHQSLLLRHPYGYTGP

Chain of SOCS3 (Homo sapiens) (O14543 41-147): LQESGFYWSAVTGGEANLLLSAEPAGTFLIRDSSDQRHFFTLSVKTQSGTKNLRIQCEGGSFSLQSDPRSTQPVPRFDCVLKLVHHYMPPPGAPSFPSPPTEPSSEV
Chain of YES1 (Homo sapiens) (P07947 153-260): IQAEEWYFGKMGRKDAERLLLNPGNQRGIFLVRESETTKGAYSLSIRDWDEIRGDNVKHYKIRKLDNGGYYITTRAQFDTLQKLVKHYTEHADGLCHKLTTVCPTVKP
Chain of SHF (Homo sapiens) (Q7M4L6 318-423): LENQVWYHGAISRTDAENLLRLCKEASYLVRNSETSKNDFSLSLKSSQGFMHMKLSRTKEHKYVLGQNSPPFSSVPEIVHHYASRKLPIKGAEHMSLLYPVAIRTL
Chain of CRKL (Homo sapiens) (P46109 9-107): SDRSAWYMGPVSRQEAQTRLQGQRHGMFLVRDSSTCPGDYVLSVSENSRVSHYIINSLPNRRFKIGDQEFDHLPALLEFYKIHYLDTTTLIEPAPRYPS

In the case of …pYWDQDPPE, the apparent Kd (screen) (YES1 (Homo sapiens)) is given as 219 nM, the apparent Kd (screen) (CRKL (Homo sapiens)) is given as 1460 nM and the apparent Kd (screen) (SOCS3 (Homo sapiens)) is given as 2000 nM. For the same substance, the apparent Kd (screen) (SHF (Homo sapiens)) was 586 nM.

In the case of …pYEEMRAFQ, the apparent Kd (screen) (PIK3R3-NC (Homo sapiens)) is given as 10 nM, the apparent Kd (screen) (PIK3R3-N (Homo sapiens)) is given as 58 nM and the apparent Kd (screen) (SH3BP2 (Homo sapiens)) is given as 2000 nM.
